This is an account of results in patent US20060229273A1.

For the experiment, the target named is hKGF receptor on the surface of PC-3 prostatic carcinoma cells (UniProt P21802). As to the kind of experiment: saturation binding of 125I-hKGF on PC-3 cells, Scatchard analysis.

B1: Recombinant human Keratinocyte Growth Factor (hKGF) (ligand, UniProt P21781 32-194, looked up)
chain: CNDMTPEQMATNVNCSSPERHTRSYDYMEGGDIRVRRLFCRTQWYLRIDKRGKVKGTQEMKNNYNIMEIRTVAVGIVAIKGVESEFYLAMNKEGKLYAKKECNEDCNFKELILENHYNTYASAKWTHNGGEMFVALNQKGIPVRGKKTKKEQKTAHFLPMAIT
With B1, the specific hKGF binding sites per cell (sites per cell) turned out to be 5000.
